Test results published in patent US9278137B2, “Polymeric conjugates of active principles, their process of preparation and their polymeric intermediates” (SANOFI, priority 2010, dated 2016).
Read-outs that look alike come from different tables or passages of the source.

Columns and labels:
[1] = Nanoparticle size (hydrodynamic diameter) by dynamic light scattering (DLS); conditions: nanodispersion 10 mg/mL in WFI
[2] = for In vitro data in rat plasma (release of free cabazitaxel): 37° C., formulation 1 mg/mL; for release profile (in words): comparison of linkers

In the case of mPEG-PLA-succinyl-larotaxel [IX], the “Mean diameter (using DLS)” value [1] was 48 nm and the “PDI (DLS)” value [1] was 0.17.
With mPEG-PLA-diglycolyl-cabazitaxel [XI] the “Mean diameter (using DLS)” value [1] was 52 nm, the “PDI (DLS)” value [1] was 0.18 and the “In vitro data in rat plasma (release of free cabazitaxel)” value ([2]; Time 0 h) was 2.20. The “In vitro data in rat plasma (release of free cabazitaxel)” value ([2]; Time 1 h) was 5.36, the “In vitro data in rat plasma (release of free cabazitaxel)” value ([2]; Time 2 h) was 8.67 and the “In vitro data in rat plasma (release of free cabazitaxel)” value ([2]; Time 4 h) was 14.81. The “In vitro data in rat plasma (release of free cabazitaxel)” value ([2]; Time 18 h) was 49.39, the “In vitro data in rat plasma (release of free cabazitaxel)” value ([2]; Time 24 h) was 55.09 and the “free cabazitaxel released in 24 h” value ([2]; rat plasma) was roughly 47%. For the same substance, the “release profile (in words)” value ([2]; rat plasma) was “relatively rapid release”.
For “mPEG2000-PLA10000-Y-succinyl-2′-cabazitaxel [VIII′]”, the “In vitro data in rat plasma (release of free cabazitaxel)” value ([2]; Time 0 h) was 0, the “In vitro data in rat plasma (release of free cabazitaxel)” value ([2]; Time 1 h) was 0.84 and the “In vitro data in rat plasma (release of free cabazitaxel)” value ([2]; Time 2 h) was 1.68. For the same substance, the “In vitro data in rat plasma (release of free cabazitaxel)” value ([2]; Time 4 h) was 3.30, the “In vitro data in rat plasma (release of free cabazitaxel)” value ([2]; Time 18 h) was 17.35 and the “In vitro data in rat plasma (release of free cabazitaxel)” value ([2]; Time 24 h) was 20.16. For the same substance, the “free cabazitaxel released in 24 h” value ([2]; rat plasma) was roughly 17%, the “release profile (in words)” value ([2]; rat plasma) was “slowest release profile” and the “release of succinyl-cabazitaxel from the formulation” value ([2]; rat plasma, quantified using HPLC) was < 1 % of cabazitaxel present initially in the nanoparticles.
With mPEG-PLA-glutaryl-cabazitaxel the “Mean diameter (using DLS)” value [1] was 60 nm, the “PDI (DLS)” value [1] was 0.21 and the “In vitro data in rat plasma (release of free cabazitaxel)” value ([2]; Time 0 h) was 0. The “In vitro data in rat plasma (release of free cabazitaxel)” value ([2]; Time 1 h) was 1.31, the “In vitro data in rat plasma (release of free cabazitaxel)” value ([2]; Time 2 h) was 2.30 and the “In vitro data in rat plasma (release of free cabazitaxel)” value ([2]; Time 4 h) was 5.29. The “In vitro data in rat plasma (release of free cabazitaxel)” value ([2]; Time 18 h) was 23.51, the “In vitro data in rat plasma (release of free cabazitaxel)” value ([2]; Time 24 h) was 31.72 and the “free cabazitaxel released in 24 h” value ([2]; rat plasma) was roughly 27%.
